Measurements published in patent US20220249679A1, “BI-SPECIFIC BINDING AGENTS TARGETING SYNDECAN-1 AND FIBROBLAST GROWTH FACTOR RECEPTOR” (Mitsubishi Tanabe Pharma Corporation, priority 2018, published 2022).
“And” between values parts separate entries of the source, which are not always exact repeats. Equal entries are not always repeated.

What was measured:
[1] = target: Human CD138 His (human) (UniProt P18827); assay: SPR (BioRad Proteon), CD138 His immobilized, bivalent analyte fit
[2] = target: Human CD138 His (human) (UniProt P18827); assay: SPR, summary table

Human CD138 His (human), sequence (P18827 23-254 limits assumed): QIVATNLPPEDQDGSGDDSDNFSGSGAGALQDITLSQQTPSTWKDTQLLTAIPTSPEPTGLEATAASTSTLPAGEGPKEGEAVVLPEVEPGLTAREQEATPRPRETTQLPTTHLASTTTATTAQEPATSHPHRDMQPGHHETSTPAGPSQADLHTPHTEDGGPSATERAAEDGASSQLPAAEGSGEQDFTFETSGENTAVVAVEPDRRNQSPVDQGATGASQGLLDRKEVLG

## mBT062 (antibody)
[1]
  Kd: 1.95 nM and 2 nM
  koff: 0.000666 s⁻¹
  kon: 342000 M⁻¹ s⁻¹
[2]
  Kd: 2 nM
